# Assay results published in patent publication US10131702B2, “Glucagon-GLP-1-GIP triple agonist compounds” (priority 2013, dated 2018).
# T1: human GIP receptor (human, UniProt P48546 22-466)
# T1 sequence: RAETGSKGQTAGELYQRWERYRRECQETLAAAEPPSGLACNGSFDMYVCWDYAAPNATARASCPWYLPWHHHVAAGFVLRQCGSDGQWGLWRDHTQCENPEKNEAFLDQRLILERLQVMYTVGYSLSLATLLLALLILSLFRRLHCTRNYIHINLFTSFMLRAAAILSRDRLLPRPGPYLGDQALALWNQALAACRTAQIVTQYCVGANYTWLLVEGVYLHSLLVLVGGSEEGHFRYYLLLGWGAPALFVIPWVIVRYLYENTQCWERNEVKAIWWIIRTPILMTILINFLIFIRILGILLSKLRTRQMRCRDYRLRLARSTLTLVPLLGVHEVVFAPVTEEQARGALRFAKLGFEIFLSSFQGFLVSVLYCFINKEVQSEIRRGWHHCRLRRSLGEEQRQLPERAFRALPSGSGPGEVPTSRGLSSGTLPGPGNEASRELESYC
# B1: Compound 12 (peptide)
# peptide: YAQGTFTSDYSIYLDSKAAHDFVEWLLRA
# HELM: PEPTIDE1{Y.[Aib].Q.G.T.F.T.S.D.Y.S.I.Y.L.D.S.K.A.A.H.D.F.V.E.W.L.L.R.A.[am]}$$$$V2.0
# SMILES: CC[C@H](C)[C@H](NC(=O)[C@H](CO)NC(=O)[C@H](Cc1ccc(O)cc1)NC(=O)[C@H](CC(=O)O)NC(=O)[C@H](CO)NC(=O)[C@@H](NC(=O)[C@H](Cc1ccccc1)NC(=O)[C@@H](NC(=O)CNC(=O)[C@H](CCC(N)=O)NC(=O)C(C)(C)NC(=O)[C@@H](N)Cc1ccc(O)cc1)[C@@H](C)O)[C@@H](C)O)C(=O)N[C@@H](Cc1ccc(O)cc1)C(=O)N[C@@H](CC(C)C)C(=O)N[C@@H](CC(=O)O)C(=O)N[C@@H](CO)C(=O)N[C@@H](CCCCN)C(=O)N[C@@H](C)C(=O)N[C@@H](C)C(=O)N[C@@H](Cc1c[nH]cn1)C(=O)N[C@@H](CC(=O)O)C(=O)N[C@@H](Cc1ccccc1)C(=O)N[C@H](C(=O)N[C@@H](CCC(=O)O)C(=O)N[C@@H](Cc1c[nH]c2ccccc12)C(=O)N[C@@H](CC(C)C)C(=O)N[C@@H](CC(C)C)C(=O)N[C@@H](CCCNC(=N)N)C(=O)N[C@@H](C)C(N)=O)C(C)C
# B2: Compound 9 (peptide)
# peptide: YAQGTFTSDYSIYLDEKAAHDFVEWLLSA
# HELM: PEPTIDE1{Y.[Aib].Q.G.T.F.T.S.D.Y.S.I.Y.L.D.E.K.A.A.H.D.F.V.E.W.L.L.S.A.[am]}$$$$V2.0
# SMILES: CC[C@H](C)[C@H](NC(=O)[C@H](CO)NC(=O)[C@H](Cc1ccc(O)cc1)NC(=O)[C@H](CC(=O)O)NC(=O)[C@H](CO)NC(=O)[C@@H](NC(=O)[C@H](Cc1ccccc1)NC(=O)[C@@H](NC(=O)CNC(=O)[C@H](CCC(N)=O)NC(=O)C(C)(C)NC(=O)[C@@H](N)Cc1ccc(O)cc1)[C@@H](C)O)[C@@H](C)O)C(=O)N[C@@H](Cc1ccc(O)cc1)C(=O)N[C@@H](CC(C)C)C(=O)N[C@@H](CC(=O)O)C(=O)N[C@@H](CCC(=O)O)C(=O)N[C@@H](CCCCN)C(=O)N[C@@H](C)C(=O)N[C@@H](C)C(=O)N[C@@H](Cc1c[nH]cn1)C(=O)N[C@@H](CC(=O)O)C(=O)N[C@@H](Cc1ccccc1)C(=O)N[C@H](C(=O)N[C@@H](CCC(=O)O)C(=O)N[C@@H](Cc1c[nH]c2ccccc12)C(=O)N[C@@H](CC(C)C)C(=O)N[C@@H](CC(C)C)C(=O)N[C@@H](CO)C(=O)N[C@@H](C)C(N)=O)C(C)C
# B3: Compound 8 (peptide)
# peptide: YAQGTFTSDYSKYLESKAAHDFVEWLLSA
# HELM: PEPTIDE1{Y.[Aib].Q.G.T.F.T.S.D.Y.S.K.Y.L.E.S.K.A.A.H.D.F.V.E.W.L.L.S.A.[am]}$$$$V2.0
# SMILES: CC(C)C[C@H](NC(=O)[C@H](CC(C)C)NC(=O)[C@H](Cc1c[nH]c2ccccc12)NC(=O)[C@H](CCC(=O)O)NC(=O)[C@@H](NC(=O)[C@H](Cc1ccccc1)NC(=O)[C@H](CC(=O)O)NC(=O)[C@H](Cc1c[nH]cn1)NC(=O)[C@H](C)NC(=O)[C@H](C)NC(=O)[C@H](CCCCN)NC(=O)[C@H](CO)NC(=O)[C@H](CCC(=O)O)NC(=O)[C@H](CC(C)C)NC(=O)[C@H](Cc1ccc(O)cc1)NC(=O)[C@H](CCCCN)NC(=O)[C@H](CO)NC(=O)[C@H](Cc1ccc(O)cc1)NC(=O)[C@H](CC(=O)O)NC(=O)[C@H](CO)NC(=O)[C@@H](NC(=O)[C@H](Cc1ccccc1)NC(=O)[C@@H](NC(=O)CNC(=O)[C@H](CCC(N)=O)NC(=O)C(C)(C)NC(=O)[C@@H](N)Cc1ccc(O)cc1)[C@@H](C)O)[C@@H](C)O)C(C)C)C(=O)N[C@@H](CO)C(=O)N[C@@H](C)C(N)=O
# B4: Compound 11 (peptide)
# peptide: YAQGTFTSDYSIYLDSKAAHDFVNWLLSA
# HELM: PEPTIDE1{Y.[Aib].Q.G.T.F.T.S.D.Y.S.I.Y.L.D.S.K.A.A.H.D.F.V.N.W.L.L.S.A.[am]}$$$$V2.0
# SMILES: CC[C@H](C)[C@H](NC(=O)[C@H](CO)NC(=O)[C@H](Cc1ccc(O)cc1)NC(=O)[C@H](CC(=O)O)NC(=O)[C@H](CO)NC(=O)[C@@H](NC(=O)[C@H](Cc1ccccc1)NC(=O)[C@@H](NC(=O)CNC(=O)[C@H](CCC(N)=O)NC(=O)C(C)(C)NC(=O)[C@@H](N)Cc1ccc(O)cc1)[C@@H](C)O)[C@@H](C)O)C(=O)N[C@@H](Cc1ccc(O)cc1)C(=O)N[C@@H](CC(C)C)C(=O)N[C@@H](CC(=O)O)C(=O)N[C@@H](CO)C(=O)N[C@@H](CCCCN)C(=O)N[C@@H](C)C(=O)N[C@@H](C)C(=O)N[C@@H](Cc1c[nH]cn1)C(=O)N[C@@H](CC(=O)O)C(=O)N[C@@H](Cc1ccccc1)C(=O)N[C@H](C(=O)N[C@@H](CC(N)=O)C(=O)N[C@@H](Cc1c[nH]c2ccccc12)C(=O)N[C@@H](CC(C)C)C(=O)N[C@@H](CC(C)C)C(=O)N[C@@H](CO)C(=O)N[C@@H](C)C(N)=O)C(C)C
# B5: Compound 13 (peptide)
# peptide: YAQGTFTSDYSIYLDSKAAHDFVEWLLSAGPSSGAPPPS
# HELM: PEPTIDE1{Y.[Aib].Q.G.T.F.T.S.D.Y.S.I.Y.L.D.S.K.A.A.H.D.F.V.E.W.L.L.S.A.G.P.S.S.G.A.P.P.P.S.[am]}$$$$V2.0
# SMILES: CC[C@H](C)[C@H](NC(=O)[C@H](CO)NC(=O)[C@H](Cc1ccc(O)cc1)NC(=O)[C@H](CC(=O)O)NC(=O)[C@H](CO)NC(=O)[C@@H](NC(=O)[C@H](Cc1ccccc1)NC(=O)[C@@H](NC(=O)CNC(=O)[C@H](CCC(N)=O)NC(=O)C(C)(C)NC(=O)[C@@H](N)Cc1ccc(O)cc1)[C@@H](C)O)[C@@H](C)O)C(=O)N[C@@H](Cc1ccc(O)cc1)C(=O)N[C@@H](CC(C)C)C(=O)N[C@@H](CC(=O)O)C(=O)N[C@@H](CO)C(=O)N[C@@H](CCCCN)C(=O)N[C@@H](C)C(=O)N[C@@H](C)C(=O)N[C@@H](Cc1c[nH]cn1)C(=O)N[C@@H](CC(=O)O)C(=O)N[C@@H](Cc1ccccc1)C(=O)N[C@H](C(=O)N[C@@H](CCC(=O)O)C(=O)N[C@@H](Cc1c[nH]c2ccccc12)C(=O)N[C@@H](CC(C)C)C(=O)N[C@@H](CC(C)C)C(=O)N[C@@H](CO)C(=O)N[C@@H](C)C(=O)NCC(=O)N1CCC[C@H]1C(=O)N[C@@H](CO)C(=O)N[C@@H](CO)C(=O)NCC(=O)N[C@@H](C)C(=O)N1CCC[C@H]1C(=O)N1CCC[C@H]1C(=O)N1CCC[C@H]1C(=O)N[C@@H](CO)C(N)=O)C(C)C
# B6: Compound 10 (peptide)
# peptide: YAQGTFTSDYSIYLDSKAAKDFVEWLLSA
# HELM: PEPTIDE1{Y.[Aib].Q.G.T.F.T.S.D.Y.S.I.Y.L.D.S.K.A.A.K.D.F.V.E.W.L.L.S.A.[am]}$$$$V2.0
# SMILES: CC[C@H](C)[C@H](NC(=O)[C@H](CO)NC(=O)[C@H](Cc1ccc(O)cc1)NC(=O)[C@H](CC(=O)O)NC(=O)[C@H](CO)NC(=O)[C@@H](NC(=O)[C@H](Cc1ccccc1)NC(=O)[C@@H](NC(=O)CNC(=O)[C@H](CCC(N)=O)NC(=O)C(C)(C)NC(=O)[C@@H](N)Cc1ccc(O)cc1)[C@@H](C)O)[C@@H](C)O)C(=O)N[C@@H](Cc1ccc(O)cc1)C(=O)N[C@@H](CC(C)C)C(=O)N[C@@H](CC(=O)O)C(=O)N[C@@H](CO)C(=O)N[C@@H](CCCCN)C(=O)N[C@@H](C)C(=O)N[C@@H](C)C(=O)N[C@@H](CCCCN)C(=O)N[C@@H](CC(=O)O)C(=O)N[C@@H](Cc1ccccc1)C(=O)N[C@H](C(=O)N[C@@H](CCC(=O)O)C(=O)N[C@@H](Cc1c[nH]c2ccccc12)C(=O)N[C@@H](CC(C)C)C(=O)N[C@@H](CC(C)C)C(=O)N[C@@H](CO)C(=O)N[C@@H](C)C(N)=O)C(C)C
# Biological target: T1, human GIP receptor
# Experiment: cell-based or functional assay
row,Binder,EC50 (cAMP induction) [nM]
1,B1,0.012
2,B2,0.006
3,B3,0.015
4,B4,0.02
5,B5,0.01
6,B6,0.012

# Biological target: T2, human glucagon-like peptide 1 receptor (human, UniProt P43220 24-463)
# Experiment: cell-based or functional assay
row,Binder,EC50 (cAMP induction) [nM]
1,B1,0.076
2,B2,0.097
3,B3,0.042
4,B4,0.11
5,B5,0.24
6,B6,0.1

# Biological target: T3, human glucagon receptor (human, UniProt P47871 26-477)
# Experiment: cell-based or functional assay
# T3 sequence (P47871 26-477): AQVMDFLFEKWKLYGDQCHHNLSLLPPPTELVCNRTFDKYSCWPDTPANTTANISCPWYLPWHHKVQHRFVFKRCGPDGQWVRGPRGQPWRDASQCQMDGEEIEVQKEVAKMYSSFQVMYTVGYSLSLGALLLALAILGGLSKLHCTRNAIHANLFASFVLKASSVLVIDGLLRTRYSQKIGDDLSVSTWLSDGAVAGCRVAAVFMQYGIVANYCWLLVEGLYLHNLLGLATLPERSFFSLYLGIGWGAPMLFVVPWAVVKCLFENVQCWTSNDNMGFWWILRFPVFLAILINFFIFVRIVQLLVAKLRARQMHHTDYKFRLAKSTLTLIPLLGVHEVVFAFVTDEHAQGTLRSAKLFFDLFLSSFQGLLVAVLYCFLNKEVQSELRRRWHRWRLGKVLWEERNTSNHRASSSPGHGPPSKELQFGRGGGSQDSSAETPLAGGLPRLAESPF
row,Binder,EC50 (cAMP induction) [nM]
1,B1,0.076
2,B2,0.097
3,B3,0.042
4,B4,0.11
5,B5,0.24
6,B6,0.1

# Biological target: T1, human GIP receptor
# Experiment: cell-based or functional assay
# Remark: another data set of the same source
row,Binder,EC50 (cAMP induction) [nM]
1,B1,0.084
2,B2,0.056
3,B3,0.2
4,B4,0.28
5,B5,0.083
6,B6,0.24

# Biological target: T2, human glucagon-like peptide 1 receptor
# Experiment: cell-based or functional assay
# Remark: another data set of the same source
row,Binder,EC50 (cAMP induction) [nM]
1,B1,0.012
2,B2,0.0055
3,B3,0.015
4,B4,0.02
5,B5,0.0099
6,B6,0.012

# Biological target: T3, human glucagon receptor
# Experiment: cell-based or functional assay
# Remark: another data set of the same source
row,Binder,EC50 (cAMP induction) [nM]
1,B1,0.076
2,B2,0.097
3,B3,0.042
4,B4,0.11
5,B5,0.24
6,B6,0.1
